The values that follow come from patent publication US6235711A, “Cell adhesion ihibiting compounds” (Zeneca Limited, priority 1996, dated 2001).

Positions of bridges follow the written chain, without caps; N, C: chain ends. Non-standard residues stand in square brackets, D forms with d. Residues, ends and D or L forms follow the SMILES beside them. No end group written: not given here. *: point of attachment. Acetyl(1-adamantyl) = O=C(CC12CC3CC(CC(C3)C1)C2)*; NMeF = CN[C@@H](Cc1ccccc1)C(=O)O

Test [1] has as its target T1, fibronectin (Homo sapiens, UniProt P05556+P13612).
T1 construct: host or cells: Jurkat cells; fibronectin coated on plates
To be noted: cited from earlier work.

A further test has as its target T2, α4β1 (Homo sapiens, UniProt P05556+P13612).
T2 construct: host or cells: Jurkat cells (endogenous integrin)
To be noted: Jurkat cells; read-out: IC50, blocking Jurkat cell adhesion to CS-1 coated plates; cited from earlier work.

Test [2] relates to αvβ3 as well as αIIbβIIIa. The following applies: cited from earlier work.
Another test relates to Balb/C female mice. The test can be described thus: In vivo ovalbumin delayed type hypersensitivity model. To be noted: ovalbumin in the footpad. As to the method: Balb/C female mice (20-25 g) were immunised on the flank with an emulsion of ovalbumin (Sigma; 0.1 ml subcutaneous injection of 2 mg/ml solution mixed (1:1) with complete Freunds adjuvant; Difco). Seven days later the mice were challenged by subplantar injection of ovalbumin (30 μl of 1% heat aggregated ovalbumin in saline) into the left hind foot pad. Swelling of the foot developed over a 24 hour period following which foot pad thickness was measured and compared to the pre-challenge thickness. The percentage increase in foot pad thickness was calculated. Compounds were delivered by continuous infusion at doses within the range from 10 mg/kg/day to 0.001 mg/kg/day from subcutaneous Alzet osmotic minipumps which were implanted 24 hours prior to the ovalbumin challenge. Inhibition of the inflammatory response was calculated comparing vehicle treated animals and compound treated groups (n=5 animals per group).

Test [3] deals with fibronectin. The following applies: cited from earlier work.
The target in test [4] is T3, VCAM-1-IgG fusion protein (Homo sapiens, UniProt P05556+P13612).
T3 construct: host or cells: HL-60 cells (endogenous integrin); VCAM-1-IgG fusion protein of unstated origin
T3 sequence (P13612 34-1032): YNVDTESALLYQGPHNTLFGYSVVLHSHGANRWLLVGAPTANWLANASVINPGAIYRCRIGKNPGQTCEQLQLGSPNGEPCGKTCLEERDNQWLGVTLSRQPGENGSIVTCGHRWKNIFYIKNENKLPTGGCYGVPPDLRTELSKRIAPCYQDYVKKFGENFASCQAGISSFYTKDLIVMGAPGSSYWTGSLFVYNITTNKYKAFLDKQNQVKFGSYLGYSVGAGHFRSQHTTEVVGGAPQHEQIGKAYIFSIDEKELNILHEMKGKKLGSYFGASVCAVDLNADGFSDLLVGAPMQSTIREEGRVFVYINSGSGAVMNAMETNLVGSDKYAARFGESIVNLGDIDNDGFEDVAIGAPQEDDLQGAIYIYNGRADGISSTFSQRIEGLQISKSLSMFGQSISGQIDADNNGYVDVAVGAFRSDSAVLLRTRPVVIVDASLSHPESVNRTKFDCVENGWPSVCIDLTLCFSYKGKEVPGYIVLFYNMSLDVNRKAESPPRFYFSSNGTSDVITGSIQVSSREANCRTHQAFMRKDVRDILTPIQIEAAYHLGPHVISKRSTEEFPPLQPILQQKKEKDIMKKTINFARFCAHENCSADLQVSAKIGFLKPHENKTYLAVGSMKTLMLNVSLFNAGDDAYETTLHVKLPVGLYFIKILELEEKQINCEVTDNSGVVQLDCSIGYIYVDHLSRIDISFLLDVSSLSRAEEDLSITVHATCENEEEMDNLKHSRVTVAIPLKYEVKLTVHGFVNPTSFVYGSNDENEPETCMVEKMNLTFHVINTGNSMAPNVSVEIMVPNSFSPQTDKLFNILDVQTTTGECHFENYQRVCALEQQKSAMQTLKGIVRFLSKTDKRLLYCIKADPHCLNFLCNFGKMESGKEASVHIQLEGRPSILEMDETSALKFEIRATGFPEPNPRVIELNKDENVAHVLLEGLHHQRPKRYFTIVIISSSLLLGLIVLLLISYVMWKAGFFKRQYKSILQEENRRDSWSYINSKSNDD
T3 sequence (P05556 21-798): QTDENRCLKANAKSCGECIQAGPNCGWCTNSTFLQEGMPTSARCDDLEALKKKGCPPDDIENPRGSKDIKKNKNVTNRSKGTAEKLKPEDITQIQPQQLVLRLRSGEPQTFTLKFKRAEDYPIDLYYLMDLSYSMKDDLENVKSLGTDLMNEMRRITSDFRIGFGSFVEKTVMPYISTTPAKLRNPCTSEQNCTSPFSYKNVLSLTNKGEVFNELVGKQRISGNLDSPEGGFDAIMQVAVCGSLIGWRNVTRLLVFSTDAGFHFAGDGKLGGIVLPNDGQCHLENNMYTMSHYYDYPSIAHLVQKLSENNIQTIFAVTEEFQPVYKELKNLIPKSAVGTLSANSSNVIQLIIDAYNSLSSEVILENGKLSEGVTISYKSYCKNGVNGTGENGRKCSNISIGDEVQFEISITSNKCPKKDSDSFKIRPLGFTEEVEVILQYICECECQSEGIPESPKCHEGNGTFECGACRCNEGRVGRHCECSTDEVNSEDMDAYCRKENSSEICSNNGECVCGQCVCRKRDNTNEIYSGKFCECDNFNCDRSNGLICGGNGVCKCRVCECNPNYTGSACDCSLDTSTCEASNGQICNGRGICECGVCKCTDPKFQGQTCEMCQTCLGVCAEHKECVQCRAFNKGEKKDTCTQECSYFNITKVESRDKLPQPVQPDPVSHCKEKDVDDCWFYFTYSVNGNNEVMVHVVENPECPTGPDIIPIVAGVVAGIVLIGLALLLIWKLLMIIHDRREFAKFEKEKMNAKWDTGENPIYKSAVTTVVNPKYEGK
To be noted: HL-60 cells; read-out: IC50, binding of HL-60 cells to VCAM-1-IgG fusion protein; cited from earlier work.

T2 sequence (P13612 34-1032): as the sequence (P13612 34-1032) above
T2 sequence (P05556 21-798): as the sequence (P05556 21-798) above
T1 sequence (P13612 34-1032): as the sequence (P13612 34-1032) above
T1 sequence (P05556 21-798): as the sequence (P05556 21-798) above

The term IC50 denotes the concentration needed to halve the response being measured. For “1-adamantaneacetyl-Cys-Gly-Arg-Gly-Asp-Ser-Pro-Cys ({Acetyl(1-adamantyl)}-CGRGDSPC; disulfide 1-8 (inferred))”, the “binding of Jurkat cells to fibronectin coated plates” value with fibronectin [1] is given as “inhibited the binding”. In addition, the IC50 with α4β1 was 30 µM. Besides, the “function in αvβ3 as well as αIIbβIIIa-dependent assays” value in test [2] was “inhibited function”.
Take `CC(C)C[C@@H]1NC(=O)[C@H](Cc2ccccc2)N(C)C(=O)[C@@H](CCCNC(=N)N)NC(=O)[C@@H](CCCNC(=N)N)NC(=O)[C@H](C(C)C)NC(=O)[C@H](CC(=O)O)NC1=O` [compound 20, c(MePhe-Leu-Asp-Val-D-Arg-D-Arg)] (cyclo(DV[dR][dR][NMeF]L)): the “dose required to produce a half-maximal inhibitory response in DTH” value in the test with Balb/C female mice was found to be 0.01 mg/kg/day.
Turning to Arg-Cys-Asp-thioproline-Cys, the “leukocyte cell adhesion to fibronectin” value in the test on fibronectin [3] is recorded as “inhibitor”. In addition, the “binding to the 120 kDa chymotryptic fragment of fibronectin” value with fibronectin [3] (fragment contains the Arg-Gly-Asp central cell binding domain) was “inhibited the binding”.
On to CLHGPEILDVPST, for which, in the test with α4β1, the IC50 was 30 µM.
In the case of c(Glu-TripLeu-Asp-Val), the half-inhibitory concentration (IC50) in test [4] was 94 µM.
In the case of “c(Glu-Trp-Leu-Asp-Val-Asp) (EWLDVD; cyclised; printed: Glu-Trp-Leu-Asp-Val-Asp)”, the IC50 in test [4] was above 1000 µM.
Regarding “c(Glu-Trp-Leu-Asp-Val-Pro-Glu-Trp-Leu-Asp-Val) (EWLDVPEWLDV; cyclised; printed: Glu-Trp-Leu-Asp-Val-Pro-Glu-Trp-Leu-Asp-Val)”, the IC50 in test [4] was above 1000 µM.
